Columns and labels:
[1] = molecular target: PSB‐II^142–236 construct (peptide‐substrate–binding domain of the α‐II subunit of human collagen prolyl 4‐hydroxylase II) (human) (UniProt O15460); test: ITC; 3 mM peptide titrated into 50 μM PSB‐II in the cell; 20 mM Tris, 50 mM NaCl, 50 mM glycine, pH 8.0; 25°C; one‐set‐of‐sites model with fixed stoichiometry (n = 1); three measurements
[2] = molecular target: PSB‐I^143–238 construct (peptide‐substrate–binding domain of the α‐I subunit of human collagen prolyl 4‐hydroxylase I) (human) (UniProt P13674); test: ITC; 3 mM peptide titrated into 50 μM PSB‐I^143–238 in the cell; 20 mM Bis‐Tris, 100 mM glycine, pH 6.8; 25°C; one‐set‐of‐sites model with fixed stoichiometry (n = 1); three measurements
Sequence of PSB‐I^143–238 construct (peptide‐substrate–binding domain of the α‐I subunit of human collagen prolyl 4‐hydroxylase I) (human) (P13674 160-255): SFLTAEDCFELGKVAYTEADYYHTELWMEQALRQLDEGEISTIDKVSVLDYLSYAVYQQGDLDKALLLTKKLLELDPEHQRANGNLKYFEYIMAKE

Sequence of PSB‐II^142–236 construct (peptide‐substrate–binding domain of the α‐II subunit of human collagen prolyl 4‐hydroxylase II) (human) (O15460 163-257): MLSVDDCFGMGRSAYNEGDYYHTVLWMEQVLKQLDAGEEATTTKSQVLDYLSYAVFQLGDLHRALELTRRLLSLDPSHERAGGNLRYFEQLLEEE

Kd [1]: 26.2 µM
Kd [2]: 79.6 µM
dH [2]: -12.7 kcal/mol
Substance: POG‐PAG‐POG peptide

Source: paper PMC12433258, “Binding Differences of the Peptide‐Substrate–Binding Domain of Collagen Prolyl 4‐Hydroxylases I and II for Proline‐ and Hydroxyproline‐Rich Peptides” (Proteins, 2025)
